Measured values: patent US8105799B2, “Methods of screening compounds inhibiting signal transduction through inflammatory cytokines” (Chugai Seiyaku Kabushiki Kaisha, priority 1998, dated 2012)

Experiments:
peritoneal macrophages [1] = assay: Cytokine production by LPS-stimulated peritoneal macrophages expressing TAK1-DN; format: cell-based; conditions: LPS 10 μg/ml, 24 hours, TAK1-DN Tgm-derived macrophages compared with wild-type mouse-derived macrophages, FIG. 4
Experimental: (§1) Specifically, 10 ml of ice-cold PBS solution containing 0.36% sodium citrate was injected into the peritoneal cavity of a TAK1-DN-expressing transgenic mouse (TAK1-DN Tgm) or a C57BL/6 mouse (wild-type mouse) of the same weeks of age. The mouse was given a massage for 30 seconds, and then the solution was recovered from the mouse. The solution recovered was centrifuged, and the precipitated cells were resuspended in RPMI1640 (GIBCO-BRL) containing 10% FBS (GIBCO-BRL). The cells were plated in wells at a cell density of 5×10^4/well. The cells were cultured at 37° C. for 2 hours, and floating cells were removed by washing with media. Cells adsorbed on the culture plate were used as peritoneal macrophages.
(§2) LPS, at a final concentration of 10 μg/ml, or IL-1α (Genzyme), at a final concentration of 10 ng/ml, was added to the above-prepared peritoneal macrophages, and the cells were further cultured for 24 hours. The culture supernatant was recovered. Then, the amounts of IL-1β in the culture supernatant of LPS-stimulated macrophages and IL-6 in the culture supernatant of IL-1α-stimulated macrophages were assayed by ELISA kits (Genzyme).

peritoneal macrophages [2] = assay: IL-6 production by IL-1α-stimulated peritoneal macrophages expressing TAK1-DN; format: cell-based; conditions: IL-1α 10 ng/ml, 24 hours; TAK1-DN Tgm-derived macrophages compared with wild-type mouse-derived macrophages; ELISA; FIG. 5
Experimental: as §1, §2

[3] = test system: IκBα degradation by proteasome (NFκB activation); assay: IκBα degradation in TAK1-DN expressing peritoneal macrophages stimulated by LPS and IL-1α (Western blot); format: cell-based, mouse; conditions: 30 and 60 minutes, TAK1-DN Tgm-derived macrophages, FIG. 6
Experimental: The macrophages derived from wild-type mice and from TAK1-DN Tgm, which were prepared as described above, were stimulated by LPS or IL-1, and the time course of degradation of IκBα by proteasome was monitored (0, 30, and 60 minutes). Specifically, the peritoneal macrophages were cultured in wells of a 96-well plate at a cell density of 1×10^6/well. LPS (1 μg/ml) or IL-1α (10 ng/ml) was added to the culture in the presence or absence of proteasome inhibitor MG132 (40 μM). The cells were harvested after 30 or 60 minutes.
The cells were washed with PBS (−), and then a lysis buffer was added thereto for the preparation of cell lysate. An aliquot of each lysate corresponding to about 2×10^5 cells was subjected to gel electrophoresis by 9% SDS-PAGE. The fractionated proteins were blotted onto a nitrocellulose membrane and then incubated with anti-IκBα antibody (SantaCruz) as a primary antibody for 1.5 hours. After wash, horseradish peroxidase-conjugated goat anti-rabbit antibody was used as a secondary antibody. After the reaction of the secondary antibody, the reaction product was detected by using ECL (Amersham).

TAB1 = target: T1, TAB1 (Homo sapiens, UniProt Q15750); assay: Animal cell two-hybrid assay in CHO cells (luciferase reporter); format: cell-based, hamster; conditions: pM-TAK1DN with pVP16-C68 (TAB1C68), 72 hours, FIG. 7
T1 construct: expressed in transfected cells; host or cells: CHO cells transfected with pVP16-C68
T1 sequence (Q15750 437-504): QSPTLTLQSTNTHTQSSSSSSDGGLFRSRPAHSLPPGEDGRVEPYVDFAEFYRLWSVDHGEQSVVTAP
Source text: The animal cell two-hybrid system (Dang et al., (1991) Mol. Cell. Biol. 11, 954-962) using TAB1 peptide and TAK1 peptide was used to analyze whether or not a peptide (TAK1-DN) from Glu at amino acid 77 to Gln at amino acid 303 in the TAK1 peptide of SEQ ID NO: 2 is capable of inhibiting the binding between TAK1 peptide and TAB1 peptide and further capable of inhibiting TAK1 peptide activation in animal cells.
First, each of genes encoding full-length TAK1 and TAK1-DN was ligated with the gene encoding GAL4 DNA-binding domain (GAL4-BD) to prepare an expression vector. The gene encoding full-length TAK1 was obtained from yeast two-hybrid expression plasmid pBTMHu11F (Shibuya H. et al., (1996) 272, 1179-1182) by digesting it with restriction enzymes EcoRI and PstI. Subsequently, the gene was ligated between EcoRI and PstI sites of an expression vector pM (CLONTECH) containing the GAL4-BD gene to obtain an animal cell two-hybrid expression plasmid pM-TAK1. […]
The culture further continued for 72 hours, and then luciferase activities in each cell extract were assayed by using Dual-Luciferase™ Reporter Assay System (Promega). […] The efficiency of gene introduction was normalized by using measured values for the activity of Renilla luciferase derived from the introduced pRL-SV40.

B1: TAK1-DN: TAB1-binding region of TAK1, amino acid 77 Glu to amino acid 303 Gln of SEQ ID NO: 2; dominant negative inhibitor (protein, listed as Homo sapiens)
chain: ELRQLSRVNHPNIVKLYGACLNPVCLVMEYAEGGSLYNVLHGAEPLPYYTAAHAMSWCLQCSQGVAYLHSMQPKALIHRDLKPPNLLLVAGGTVLKICDFGTACDIQTHMTNNKGSAAWMAPEVFEGSNYSEKCDVFSWGIILWEVITRRKPFDEIGGPAFRIMWAVHNGTRPPLIKNLPKPIESLMTRCWSKDPSQRPSMEEIVKIMTHLMRYFPGADEPLQYPCQ
induction of production of IL-1β (peritoneal macrophages [1]; ELISA): significantly inhibited
induction of production of IL-6 (peritoneal macrophages [1]): significantly inhibited
induction of production of TNF (peritoneal macrophages [1]): significantly inhibited
induction of IL-6 production by IL-1 stimulation (peritoneal macrophages [2]): significantly inhibited
degradation of IκBα ([3]; IL-1α 10 ng/ml): no remarkable degradation of IκBα
degradation of IκBα ([3]; LPS 1 μg/ml): no remarkable degradation of IκBα
luciferase activity (binding to TAB1) (TAB1): capable of binding to TAB1
